Literature values as cited in US11324773B2, “Compounds, compositions and methods for inhibiting a pathogen and/or modifying mucus” (The University of North Carolina at Chapel Hill, priority 2017, dated 2022).

B1: dornase alfa (protein, UniProt P24855 23-282, looked up)
Deoxyribonuclease-1: LKIAAFNIQTFGETKMSNATLVSYIVQILSRYDIALVQEVRDSHLTAVGKLLDNLNQDAPDTYHYVVSEPLGRNSYKERYLFVYRPDQVSAVDSYYYDDGCEPCGNDTFNREPAIVRFFSRFTEVREFAIVPLHAAPGDAVAEIDALYDVYLDVQEKWGLEDVMLMGDFNAGCSYVRPSQWSSIRLWTSPTFQWLIPDSADTTATPTHCAYDRIVVAGMLLRGAVVPDSALPFNFQAAYGLSDQLAQAISDHYPVEVMLK
notes: conventional mucolytic therapy used to treat CF

Key:
HBE mucus = details: 30 μM, 24 h, versus controls
expectorated sputum = details: patients with CF, 10 d, 2.5 mg twice daily

Molecule | decrease of viscosity and elasticity of HBE mucus (HBE mucus) | reduction of expectorated sputum elasticity (expectorated sputum) [%] | reduction of expectorated sputum viscosity (expectorated sputum) [%]
CC(=O)N[C@@H](CS)C(=O)O [N-acetylcysteine] | by an order of magnitude | – | –
B1 | – | 68 | 59
